Legend:
[1] = biological target: secretin receptor (SCTR) (mouse (endogenous in mouse jejunal ICC-DMP)) (UniProt Q5FWI2)
[2] = biological target: secretin receptor (SCTR) (mouse (endogenous in mouse jejunal ICC-DMP)) (UniProt Q5FWI2); remark: listed apart in the source
[3] = biological target: secretin receptor (SCTR) (mouse (endogenous in mouse jejunal ICC-DMP)) (UniProt Q5FWI2); remark: listed apart in the source

Chain of UniProt Q5FWI2 (Q5FWI2 29-447): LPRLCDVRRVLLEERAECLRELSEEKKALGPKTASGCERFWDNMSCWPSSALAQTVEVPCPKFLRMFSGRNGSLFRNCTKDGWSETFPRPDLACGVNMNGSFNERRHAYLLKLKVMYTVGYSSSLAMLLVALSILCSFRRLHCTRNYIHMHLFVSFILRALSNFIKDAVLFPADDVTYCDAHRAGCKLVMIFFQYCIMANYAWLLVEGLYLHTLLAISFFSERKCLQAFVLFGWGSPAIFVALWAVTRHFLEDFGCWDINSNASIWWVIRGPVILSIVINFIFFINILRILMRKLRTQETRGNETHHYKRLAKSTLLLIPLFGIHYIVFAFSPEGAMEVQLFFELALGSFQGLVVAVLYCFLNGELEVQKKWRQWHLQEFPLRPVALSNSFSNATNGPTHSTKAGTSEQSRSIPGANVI

Ca2+ transients in ICC-DMP (GCaMP6f), area of events, secretin 100 nM with TTX 1 uM [1]: 0.57 μm·s
Ca2+ transients in ICC-DMP (GCaMP6f), spatial spread, secretin 100 nM with TTX 1 uM [1]: 3.1 μm
contractions of murine jejunal muscle strips, amplitude, secretin 100 nM with TTX 1 uM [2]: 53.3 % of control
contractions of murine jejunal muscle strips, area under the curve, secretin 100 nM with TTX 1 uM [2]: 46.4 % of control
spontaneous contractions of murine jejunal muscle strips, area under the curve, secretin 100 nM, control conditions [2]: 45.6 % of control
spontaneous contractions of murine jejunal muscle strips, contractile amplitude, secretin 100 nM, control conditions [2]: 61.3 % of control
cAMP level in ICC-DMP, FRET ratio (mTurquoise/Venus) of the CAMPER sensor, secretin 100 nM [3]: 108 % of control
Binder: HSDGTFTSELSRLREGARLQRLLQGLV [Secretin, human]

— paper PMC12678811
